Test system: T1, VPF-FRRG(SEQ ID NO: 1)-DOX self-assembled nanoparticles (LT-NPs)
T1 sequence: FRRG

cathepsin B (Cat-B) protease
cleavage of LT-NPs after enzymatic reaction with cathepsin B (RP-HPLC at 0, 9 and 24 h; fluorescence spectrophotometry): the self-assembled nanoparticles (LT-NPs) were cleaved by cathepsin B to release doxorubicin and the photosensitizer | morphology by transmission electron microscopy after 24 h reaction with cathepsin B (50 ug/mL): the self-assembled nanoparticles (LT-NPs) were degraded by cathepsin B present in cancer cells and existed in an activated state
